For test [1], the target named is T1, soluble recombinant human IL-1RI (corresponding to the extracellular domain of IL-1RI) (human, UniProt P14778 18-336).
T1 construct: extracellular domain; also called interleukin-1 receptor I; immobilized soluble IL-1RI
T1 sequence (looked up): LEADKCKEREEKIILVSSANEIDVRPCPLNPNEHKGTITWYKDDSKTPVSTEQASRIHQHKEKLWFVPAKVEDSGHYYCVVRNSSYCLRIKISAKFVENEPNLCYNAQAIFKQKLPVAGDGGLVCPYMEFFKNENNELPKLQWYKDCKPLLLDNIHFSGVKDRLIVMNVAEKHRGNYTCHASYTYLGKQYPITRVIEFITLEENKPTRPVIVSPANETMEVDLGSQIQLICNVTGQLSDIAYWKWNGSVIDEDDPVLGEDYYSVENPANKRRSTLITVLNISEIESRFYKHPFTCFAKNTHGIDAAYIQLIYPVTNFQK
As to the kind of experiment: SPR (Reichert SR7000DC), soluble human IL-1RI; end of range tied to P04 by Table 7. As to the method: (§1) The binding properties of proteins for soluble recombinant human IL-1RI (corresponding to the extracellular domain of IL-1RI) were evaluated using surface plasmon resonance with a Reichert SR7000DC Dual Channel SPR system. Binding was evaluated in phosphate buffered saline with 0.005% Tween 20. […] Thus, the P01 protein bound to IL-1RI with a greater affinity than did IL-1β under similar conditions.
(§2) See for example FIGS. 9C and 9D and Table 7 below.

The target in test [2] is T1, soluble recombinant human IL-1RI …. In words: SPR (Reichert SR7000DC), soluble human IL-1RI; end of range tied to P03 (highest Kd) by Table 7. As to the method: as §1, §2
The target in test [3] is T2, IL-1RI on HEK-Blue IL-1β responsive cells (UniProt P14778 18-569).
T2 sequence (looked up): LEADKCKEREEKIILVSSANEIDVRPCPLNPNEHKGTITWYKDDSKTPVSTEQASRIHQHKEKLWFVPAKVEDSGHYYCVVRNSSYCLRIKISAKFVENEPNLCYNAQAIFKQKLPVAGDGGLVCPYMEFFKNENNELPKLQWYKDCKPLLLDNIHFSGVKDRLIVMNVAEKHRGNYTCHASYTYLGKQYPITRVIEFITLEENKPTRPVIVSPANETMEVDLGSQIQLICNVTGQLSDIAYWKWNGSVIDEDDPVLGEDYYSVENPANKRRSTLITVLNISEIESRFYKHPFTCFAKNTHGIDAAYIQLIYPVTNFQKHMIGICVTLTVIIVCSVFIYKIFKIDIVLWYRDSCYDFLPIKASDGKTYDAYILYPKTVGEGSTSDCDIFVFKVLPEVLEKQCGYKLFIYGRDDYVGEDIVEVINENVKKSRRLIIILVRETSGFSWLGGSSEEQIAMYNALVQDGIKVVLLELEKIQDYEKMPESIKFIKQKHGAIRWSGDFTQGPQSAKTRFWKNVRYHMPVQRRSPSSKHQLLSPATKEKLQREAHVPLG
In words: cell-based or functional assay.

In test [4] the target is T1, soluble recombinant human IL-1RI …. In words: SPR (Reichert SR7000DC), soluble human IL-1RI; end of range tied to P02 (lowest Kd) by Table 7. As to the method:
as §1, §2

Residue numbers refer to the chain shown, from its start. Some results are limits rather than exact numbers.

The text below walks through data of patent US20130209396A1 (ELEVEN BIOTHERAPEUTICS, published 2013).

What is called Kd is the concentration at which binding is half-saturated. What is called kon is a measure of how fast the partners come together. For orientation: koff means the rate constant with which the complex falls apart.

B1: P04 (designed binder)
chain: APVRSLAFRIWDVNQKTFYLRNNQLVAGYLQGPNVNLEEKFSMSFVQGEESNDKIPVALGLKEKNLYLSCVLKDDKPTLQLESVDPKNYPKKKMEKRFVFNKIEINNKLEFESAACPGWFLCTAMEADQPVSLTNMPDEGVMVTKFTMQFVSS
notes: Chimeric IL-1β/IL-1Ra cytokine domain expressed in E. coli; Both hexa-histidine tagged and untagged forms were made; also called P04 domain
B1: in test [1], the Kd worked out at 1.7 nM and the kon worked out at 30000 M⁻¹ s⁻¹.

B2: P03 (designed binder)
chain: B1 chain with N101I, K102R, I103S, E104D, I105S, N106G, N107P, K108T, L109T, E110S
notes: Chimeric IL-1β/IL-1Ra cytokine domain expressed in E. coli; Both hexa-histidine tagged and untagged forms were made; also called P03 domain
Turning to B2, the koff in test [2] is 0.001 s⁻¹.

B3: P05 (designed binder)
chain: B1 chain with A7N, F8C, A115Q, C116F, G118N, T147Y
Consider B3, for which the “IC50 of antagonism of IL-1β activity, SEAP reporter in HEK-Blue IL-1β cells” value in test [3] was below 5 ng/mL.

B4: P02 (designed binder)
chain: APVRSLAFRIWDVNQKTFYLRNNQLVAGYLQGPNVNLEEKIDVSFVQGEESNDKIPVALGIHGGKMCLSCVKSGDETRLQLEAVDPKNYPKKKMEKRFVFNKIEINNKLSFESAACPGWFLCTAMEADQPVSLTNMPDEGVMVTKFYMQFVSS
notes: Chimeric IL-1β/IL-1Ra cytokine domain expressed in E. coli; also called P02 domain
Regarding B4, the koff in test [4] came to 2e-05 s⁻¹.
